From patent US20160376333A1 (University of Washington, published 2016)

T1: Epstein-Barr virus BHRF1 a.a. 1-161 with C-terminal avi-6his tag (Epstein-Barr virus)
T1 construct: also called EBV BHRF1; BHRF1-biotin
T1 chain: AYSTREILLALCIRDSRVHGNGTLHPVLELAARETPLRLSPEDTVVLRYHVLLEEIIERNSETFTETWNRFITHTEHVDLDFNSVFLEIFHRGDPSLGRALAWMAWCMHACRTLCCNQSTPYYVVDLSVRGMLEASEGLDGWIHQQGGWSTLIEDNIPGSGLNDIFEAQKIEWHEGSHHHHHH

B1: Index 20 (designed binder)
chain: GLRFEEIERYAREEADKIADEAKERFEKLKKLFLWLTDKDEERLKMTHLWIAGALEAIGDLFNAAELAKELAEKAARLTSQDANRRDEARKKIDEAEKEAADKVSKAAKEAAKFFEQG
B2: Index 11 (designed binder)
chain: GNILDEAKDEMREEMEKLWKKFKDEVEEERKEAEREEKHFQERAELTKRWIARALMAIGDMFNRFREAKEKLEKRRELGLISEEDARKALLLLEEFMRRMAEFAKKLGDDLMRDAEKG
B3: Index 07 (designed binder)
chain: GEEFKKKLKKWEEWLLKATNEAENQARNMWQKAEQTDLEDQQRIRAVDFWIAIALMAIGDKFNADQEGDEEFEKYKKKGRASEDKIKEAKDERDRAKKRWEQFVKEAGERAFRGEQLG
B4: Index 71 (designed binder)
chain: GERAERARDWAKDQMDDELEKAREKLWKLAFIAFKFYLKLELLFKLMFRWIAIMLEAIGDFFNVWAIAKRWLERYKLQNNIRKEEIEKAKERAKKLYEEAADKAAKLGRFYMKLLTSG
B5: Index 74 (designed binder)
chain: GTDHQAFDEWARRELERIVEEARERAERLREWIEQKDASREELTKFFAIWIAISLMAIGDLFNVKEQAKRLAELLEFLGLQRKEEIEKSKKNAEKLADEAMKKASKLDAKVEKELMQG
B6: Index 25 (designed binder)
chain: GANHEDAIWEALYKAEDAFKDHLKEIEIYREFSEKFWPLDDYKDNLRAHWIAAALAAIGDWFNVFFEAELKFREAKRKNLRSEDDIKKYRWRLFKALDIAIDLADRVGDEAEKAERLG
B7: Index 22 (designed binder)
chain: GSSAEDLRDWARDQHEKDVDKMEKRLRLLYFELARKDFNEEELKKATEKWIAAALDAIGDHFNAALKARLLARDAAKKGLIDRNKLDEVEKMAELFEELGERKAALKGREFLRWVLLG
B8: Index 19 (designed binder)
chain: GERVEEILRKMLDDALLHFLEHRDDARERKERGERHQPRDEEREELSHDWIAAALMAIGDIFNAKLRAEERAEEFLKWGLRSQDDKKELEERAKEAAKIALKWAEEAGKEADEAEKAG
B9: Index 73 (designed binder)
chain: GKDLDEIIDEARKEMDDDADDGKKKAEKLLKLHAGTNHSQDDFNEAHRRWIAVALEEIGDLFNAALRAWRKIEEEIRKNQRRKEEAEKAKEKVSKEYERASRKAAELGKEFEERVEQG
B10: Index 05 (designed binder)
chain: GKDADKKKDEAKKKAEWKEREVFERLEKMEWKKRKDSVSKDDARKFTLKWIADDLELIGDLFNLKEEAREVAEDAARNNQITEEQREEDEKDLEKLAKEHSWRAAYRGKLKAKEFWEG
B11: Index 21 (designed binder)
chain: GFDWKKVLDKAKDLAENDVREAKQKLEEFYKKAMKLDLTQEMRRKLMLEWIAAMLMAIGDIFNAIEQGKQEADKLKKLGKVLSQLLDELKRRLEELKEEAALKAHDFGREFELKLLFG
notes: also called computational precursor for BbpD04
B12: Index 18 (designed binder)
chain: GGTEDDIKDLAEKWRDDMKKEFLREFLRIKEWTKYWGWREEGRKLATLRWIALSLMHIGDLFNLKELAKKLVDDIKKKGLEHEERAERAREEAEKIMEKAAKLDSILSKLAAKLIEEG
B13: Index 09 (designed binder)
chain: GKEAKKRIQEALEEAKRKAEKLLREHEKKKKEHLLGDKRDREKTEETDKWIAEALMLIGDIFNLYMKFEWEKEREKKLGLLREEEEKEVEDEAKDAYLKALKLAYLVSKKGHEVAELG
B14: Index 17 (designed binder)
chain: GRSAEIMREILEKQAEDDAKKIRDIAQKWKERRKRYDPRDEEREEEVEKWIAFALMAIGDIFNLARWALLQARWERRWNLSHEDEGKNHEENVKDAEDRAHWKAREAAREGAKMSWEG
B15: Index 00 (Design BbpD04) (designed binder)
chain: GADWKKVLDKAKDIAENRVREIKQKLEEFYKKAMKLDLTQEMRRKLMLEWIAAMLMAIGDIFNAIEQAKQEADKLKKAGQVNSQLLDELKRRLEELKEEASRKCHDYGREFQLKLEYG
B16: Index 24 (designed binder)
chain: GELAREAAEEAHRRVEEDARDAKNRLDEFKKRYKITQLSKSDISRATALWIAAALDAIGDIFNAKQKAEKILGLWYKLGLVQLQEFLEKEDKARYHWQAALERAFEAGRDMLEVAAYG
B17: Index 27 (designed binder)
chain: GLDGDYLMDEAFKFIERERERAEEEAKKMYELAEKGKYYEERKTKATKFWIALALEMIGDFFNFEMWFRKYAEKNRENNQRREDLLRRWELLLRFQAWDAAERARELGKRLELWFKKG
B18: Index 12 (designed binder)
chain: GEDDDKVLKWALEALRKVLDEAKEKLEKLKKYTDGDGFGEDYRREFFRKWIAIALEAIGDIFNIMMEALQKADKHKKLNTHDSQKADEAKEKIKKFADEAEERAKELAKKGEAWLLKG
B19: Index 70 (designed binder)
chain: GLLWLAIILKAEELARKKDDEAEERIRRLEDEKRKGDPGTLGEAERTDRWIAIMLMAIGDAFNVMLEAKEEAEKLEKLGLVHKELLEKVKEEAERLFERSSDNFEEAAKRADDMEKEG
B20: Index 08 (designed binder)
chain: GWDARRALKYVYERMREDLEYARNQIDNMEDRADQYDARTEERKEFTKRWIALALMLIGDGFNAFERAKEWIDDGKNNNQRSSDEADYAKDEALKFIFYAAFEARRKGDELDKKAEGG
B21: Index 28 (designed binder)
chain: GKEGSRLREEAERRGLRKLLEVILRWLEDALRMIYGQDKDEDRKEATHRWIADALELIGDIFNALLEAFIKMELARRFGLLEEQRARDEKKKALERAEEFSKRARELGEKLTQILEGG
B22: Index 13 (designed binder)
chain: GSKWEEDREKAKREAEKKLDEAKDKLDLYKDFALRFDASDELKTKWTLEWIALALEMIGDVFNYALEAKEFAEKKARNNLLLDDLKDLYKLYLALLAKEESKKAIEEGDKLREAIEKG
B23: Index 69 (designed binder)
chain: GEQAEKALRRAKRRAKWGLDDAKDILDDIEAEIRWYYPRDEERFKFVDRWIAAMLMVIGDLFNAKREALERALRLMRKGLISQDQFKKFMEKLEKIILWGKFQARKLGREKESEITQG
B24: Index 26 (designed binder)
chain: GRFAERLFKKMLIKQLLNTQYFRDQLKQLKDRSKKYDASDDDKDEATHRWIAFALMAIGDVFNDKLEIELLIELFAKYGLVHEEERKEFRKRLDEFEKIFRKWLDELKKLALEALNQG
B25: Index 10 (designed binder)
chain: GDSDDDDLKDALLRMLWAAAQAIYHSLENMERKEKFDMHFEEERRDTLQWIADALRAIGDAFNEMMRRRRELEKKRENNIISEQRARLYEEFLKRFAEWASRELAKAGKKEANKLNEG
B26: Index 06 (designed binder)
chain: GRSANDILKQFLEMLQEALRKFDEKKNKIEDEWKQFDLSTQRREEATHKWIAAALMAIGDMFNALRWALEEALKAKLKNLQSSDDLKEAIERMMKLMLEKAQEIQEKGRELADKIEQG
B27: Index 23 (designed binder)
chain: GEDEEKDHKDTEEKARRLHERARDMLDKVKDLEEKTDAQDNERRRATHDWIAAALMMIGDAFNSFEDTKRRAEKKRELNLISEDEAKEKIKRAEELRKRIYELLKKAAEFAREAEKGG
B28: Index 72 (designed binder)
chain: GGSYDDIADLAKKLHKKIAEEAKKKIDELLKEAFEDKPYEEEFAKKMFKWIAIALMAIGDLFNAAELAKRLAEDLKKDNNRDENKAEEAKQRAEQFEKEGAEELAKKGEEAAKKLAGG
B29: Index 14 (designed binder)
chain: GLSADDLFDYAEDRMREGWKDFEELAGEAEKKAKEHTLSDQERREATEKWIAAALELIGDAFNAIRWAEELGKLYVKLNLDDKQKVEELKKKLEERAKEEAQKARKRGDKLEDLADSG

Target: T1, Epstein-Barr virus BHRF1 a.a. 1-161 …
Experiment: yeast display library, FACS sort at 100 nM BHRF1, deep sequencing

| Binder | Log2 enrichment ratio |
| --- | --- |
| B1 | -3.87 log2 |
| B2 | -2.62 log2 |
| B3 | -2.79 log2 |
| B4 | -2.58 log2 |
| B5 | -3.38 log2 |
| B6 | -2.9 log2 |
| B7 | -3.03 log2 |
| B8 | -2.97 log2 |
| B9 | -3.14 log2 |
| B10 | -2.5 log2 |
| B11 | -3.38 log2 |
| B12 | -1.36 log2 |
| B13 | -2.55 log2 |
| B14 | -3.41 log2 |
| B15 | 3.92 log2 |
| B16 | -3.02 log2 |
| B17 | -0.72 log2 |
| B18 | -2.56 log2 |
| B19 | -3.02 log2 |
| B20 | -3.06 log2 |
| B21 | -4.52 log2 |
| B22 | -3.07 log2 |
| B23 | -3.25 log2 |
| B24 | -2.74 log2 |
| B25 | -0.72 log2 |
| B26 | -2.35 log2 |
| B27 | -1.72 log2 |
| B28 | -3.34 log2 |
| B29 | -2.91 log2 |

Target: T1, Epstein-Barr virus BHRF1 a.a. 1-161 …
Experiment: yeast display library, FACS sort at 400 nM BHRF1, deep sequencing

| Binder | Log2 enrichment ratio |
| --- | --- |
| B1 | -3.65 log2 |
| B2 | -1.55 log2 |
| B3 | -1.16 log2 |
| B4 | -3.07 log2 |
| B5 | -2.62 log2 |
| B6 | -1.53 log2 |
| B7 | -2.4 log2 |
| B8 | -1.98 log2 |
| B9 | -2.27 log2 |
| B10 | -0.83 log2 |
| B11 | -2.81 log2 |
| B12 | 0.98 log2 |
| B13 | -2.05 log2 |
| B14 | -2.54 log2 |
| B15 | 3.19 log2 |
| B16 | -2.95 log2 |
| B17 | 0.86 log2 |
| B18 | -1.37 log2 |
| B19 | -3.13 log2 |
| B20 | -0.8 log2 |
| B21 | -2.85 log2 |
| B22 | -1.6 log2 |
| B23 | -3.99 log2 |
| B24 | -2 log2 |
| B25 | 0.62 log2 |
| B26 | -1.45 log2 |
| B27 | -0.17 log2 |
| B28 | -3.47 log2 |
| B29 | -0.65 log2 |
